The assay concerns the target T1, 人CD123蛋白 (白细胞介素3受体α链) (human, UniProt P26951 19-378).
T1 construct: whole, on cells; also called IL-3Rα; 3T3/CD123+
The assay can be described thus: flow cytometry, PE-labelled antibody titrated on CD123-transfected 3T3 cells, fitted in GraphPad Prism 5.

From patent publication CN112851807A (BLOOD DISEASES HOSPITAL CHINESE ACADEMY OF MEDICAL SCIENCES …, dated 2021) come the findings set out here.

T1 sequence (P26951 19-378): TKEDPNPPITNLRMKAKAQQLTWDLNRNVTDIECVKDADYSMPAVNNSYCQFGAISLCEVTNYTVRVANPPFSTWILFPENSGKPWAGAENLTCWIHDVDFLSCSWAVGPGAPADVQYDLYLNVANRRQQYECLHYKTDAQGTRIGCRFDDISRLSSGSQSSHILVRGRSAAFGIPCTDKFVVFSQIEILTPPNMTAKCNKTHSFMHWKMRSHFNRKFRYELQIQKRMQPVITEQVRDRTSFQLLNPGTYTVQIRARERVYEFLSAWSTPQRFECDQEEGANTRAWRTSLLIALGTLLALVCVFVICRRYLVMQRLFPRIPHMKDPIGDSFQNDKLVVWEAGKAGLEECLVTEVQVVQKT

B1: 抗CD123单克隆抗体12H7 (antibody, IgG1, V domains shown)
VH: QVKLQESGPGLVKPSQSLSLTCTVTGYSITSDFAWNWVRQFPGDKLEWMGYISYSGGTNYHPSLKDRISITRDTSKNQVFLQLNSVTTEDTATYYCARGGMITPYFAYWGQGTLVTVSA
VL: DVVVTQTPLSLPVSFGDQVSISCRSSQSLANSYGNTFLSWYLHKPGQSPQLLIYGISNRFSGVPDRFSGSGSGTDFTLKISTIKPEDLGIYYCLQGTHQPWTFGGGTKLEIKR
notes: Purified from ascites; also called CGMCC 18847
The molecule B1 gave a Kd of 2.09 nM.

B2: 抗CD123单克隆抗体6E11 (antibody, IgG1, V domains shown)
VH: QVQLQESGPGLVKPSQSLSLTCTVTGYSITNDFAWNWIRQFPGNKLEWMGYISFSGSTSYNPSLKGRISITRDTSKNQFFLQLNSVTTEDTATYSCARGGMITPYFSYWGQGTLVTVSA
VL: DVVVTQTPLSLPVSFGDSVSISCRSSQSLANSYGNTFLSWYLHRPGQSPQLLIYGISNRFSGVPDRFSGSGSGTDFTLKISSIKPEDLGVYYCLQGTHQPWTFGGGTKLEIKR
notes: Purified from ascites; also called CGMCC 18848
Regarding B2, the Kd amounted to 2.1 nM.

B3: 抗CD123单克隆抗体8D7 (antibody, IgG1, V domains shown)
VH: EVQLQESGPGLVKPSQSLSLTCTVTGYSITNDYTWNWIRQFPGNKLEWMGYISFSGITSHNPSLNSRISITRDTSKNQFFLQLNSVTTEDTATYYCTRGVDFWGQGTSVTVSA
VL: DIVLTQSPATLSVTPGDSVSLSCWASQSISNSLHWYQQKSHESPRLLIKFASQSISGIPSRFSGSGSGTDFTLSIDSVETEDFGMYFCQQGHTWPHTFGAGTKLELKR
notes: Purified from ascites; also called CGMCC 18849
In turn, B3 registered a Kd of 2.01 nM.
